Measurements published in patent EP4682162A1 (Neowise Biotechnology Co., Ltd., dated 2026).

Assays:
[1] = biological target: T1, labeled peptide-MHC (HLA-A*02:01) tetramer (…-HLA-A*02:01 tetramer) (human); assay: tetramer staining of sorted T cell clones, flow cytometry
T1 construct: Labeled tetramer used for flow cytometry staining; also called pMHC; pMHC tetramer

[2] = biological target: T1, labeled peptide-MHC (HLA-A*02:01) …; assay: pMHC tetramer staining of edited CD8+ T cells, flow cytometry

Binder | binding result [1] | binding result [2]
nwTCR-3274 (TCR, V domains shown, TCR on T cells) V domain 1: QKEVEQNSGPLSVPEGAIASLNCTYSDRGSQSFFWYRQYSGKSPELIMSIYSNGDKEDGRFTAQLNKASQYVSLLIRDSQPSDSATYLCAVVSGGYNKLIFGAGTRLAVHP V domain 2: EPEVTQTPSHQVTQMGQEVILRCVPISNHLYFYWYRQILGQKVEFLVSFYNNEISEKSEIFDDQFSVERPDGSNFTLKIRSTKLEDSAMYFCASSEGWGGTEAFFGQGTRLTVVE | binds | 
nwTCR-3173 (TCR, V domains shown, TCR on T cells) V domain 1: SQQGEEDPQALSIQEGENATMNCSYKTSINNLQWYRQNSGRGLVHLILIRSNEREKHSGRLRVTLDTSKKSSSLLITASRAADTASYFCATYANDYKLSFGAGTTVTVRA V domain 2: EAQVTQNPRYLITVTGKKLTVTCSQNMNHEYMSWYRQDPGLGLRQIYYSMNVEVTDKGDVPEGYKVSRKEKRNFPLILESPSPNQTSLYFCASSAGTGGFVGYTFGSGTRLTVVE | binds | 
nwTCR-3271 (TCR, V domains shown, TCR on T cells) V domain 1: DQQVKQNSPSLSVQEGRISILNCDYTNSMFDYFLWYKKYPAEGPTFLISISSIKDKNEDGRFTVFLNKSAKHLSLHIVPSQPGDSAVYFCAAKPDKLIFGTGTRLQVFP V domain 2: SAVISQKPSRDICQRGTSLTIQCQVDSQVTMMFWYRQQPGQSLTLIATANQGSEATYESGFVIDKFPISRPNLTFSTLTVSNMSPEDSSIYLCSVWGAGLAIYNEQFFGPGTRLTVLE | binds | 
nwTCR-3272 (TCR, V domains shown, TCR on T cells) V domain 1: QKEVEQNSGPLSVPEGAIASLNCTYSDRGSQSFFWYRQYSGKSPELIMSIYSNGDKEDGRFTAQLNKASQYVSLLIRDSQPSDSATYLCAVPSGNMLTFGGGTRLMVKP V domain 2: DVKVTQSSRYLVKRTGEKVFLECVQDMDHENMFWYRQDPGLGLRLIYFSYDVKMKEKGDIPEGYSVSREKKERFSLILESASTNQTSMYLCASSSATSGSGEQYFGPGTRLTVTE | binds | 
nwTCR-3273 (TCR, V domains shown, TCR on T cells) V domain 1: SQELEQSPQSLIVQEGKNLTINCTSSKTLYGLYWYKQKYGEGLIFLMMLQKGGEEKSHEKITAKLDEKKQQSSLHITASQPSHAGIYLCGAVPINDYKLSFGAGTTVTVRA V domain 2: EAQVTQNPRYLITVTGKKLTVTCSQNMNHEYMSWYRQDPGLGLRQIYYSMNVEVTDKGDVPEGYKVSRKEKRNFPLILESPSPNQTSLYFCASSIDSGSSYNEQFFGPGTRLTVLE | binds | 
nwTCR-2006 (TCR, V domains shown, TCR on T cells) V domain 1: AQSVTQLDSHVSVSEGTPVLLRCNYSSSYSPSLFWYVQHPNKGLQLLLKYTSAATLVKGINGFEAEFKKSETSFHLTKPSAHMSDAAEYFCVVSITGFQKLVFGTGTRLLVSP V domain 2: GAVVSQHPSRVICKSGTSVKIECRSLDFQATTMFWYRQFPKQSLMLMATSNEGSKATYEQGVEKDKFLINHASLTLSTLTVTSAHPEDSSFYICSATEDNEKLFFGSGTQLSVLE |  | binds

Other lines, results leading:

binding result [1] | binding result [2] | Binder
 | binds | nwTCR-2169 (TCR, V domains shown, TCR on T cells) V domain 1: SQQGEEDPQALSIQEGENATMNCSYKTSINNLQWYRQNSGRGLVHLILIRSNEREKHSGRLRVTLDTSKKSSSLLITASRAADTASYFCATLTLNDYKLSFGAGTTVTVRA V domain 2: EAQVTQNPRYLITVTGKKLTVTCSQNMNHEYMSWYRQDPGLGLRQIYYSMNVEVTDKGDVPEGYKVSRKEKRNFPLILESPSPNQTSLYFCATQWASGSTDTQYFGPGTRLTVLE
 | binds | nwTCR-2159 (TCR, V domains shown, TCR on T cells) V domain 1: QQPVQSPQAVILREGEDAVINCSSSKALYSVHWYRQKHGEAPVFLMILLKGGEQKGHDKISASFNEKKQQSSLYLTASQLSYSGTYFCGTESGRGSTLGRLYFGRGTQLTVWP V domain 2: DSGVTQTPKHLITATGQRVTLRCSPRSGDLSVYWYQQSLDQGLQFLIQYYNGEERAKGNILERFSAQQFPDLHSELNLSSLELGDSALYFCASSPWTSGSYEQYFGPGTRLTVTE
binds |  | nwTCR-1954 (TCR, V domains shown, TCR on T cells) V domain 1: QKEVEQNSGPLSVPEGAIASLNCTYSDRGSQSFFWYRQYSGKSPELIMSIYSNGDKEDGRFTAQLNKASQYVSLLIRDSQPSDSATYLCAVLRSNDYKLSFGAGTTVTVRA V domain 2: EAQVTQNPRYLITVTGKKLTVTCSQNMNHEYMSWYRQDPGLGLRQIYYSMNVEVTDKGDVPEGYKVSRKEKRNFPLILESPSPNQTSLYFCASSPGTSGNEQFFGPGTRLTVLE
 | binds | nwTCR-2157 (TCR, V domains shown, TCR on T cells) V domain 1: QKEVEQNSGPLSVPEGAIASLNCTYSDRGSQSFFWYRQYSGKSPELIMFIYSNGDKEDGRFTAQLNKASQYVSLLIRDSQPSDSATYLCAVPGGTSYGKLTFGQGTILTVHP V domain 2: DTAVSQTPKYLVTQMGNDKSIKCEQNLGHDTMYWYKQDSKKFLKIMFSYNNKELIINETVPNRFSPKSPDKAHLNLHINSLELGDSAVYFCASSQGISGNTIYFGEGSWLTVVE
